Substrate in the data set: O=S(=O)(O)CCSSCCS(=O)(=O)O
Nature of the data set: purified protein, by the assay type. The settings on record: pH 7.0; 25.0 °C.

This passage reports Km results from patent publication US9320760B2, “Compositions and methods of use of compounds to increase cancer patient survival time” (BioNumerik Pharmaceuticals, Inc., priority 2008, dated 2016).

Broadly, the Km is the substrate concentration at which the rate is half of its maximum.

B1: Thioredoxin Reductase + Thioredoxin (Bos taurus) (protein)
chain: MVKQIESKYAFQEALNSAGEKLVVVDFSATWCGPCKMIKPFFHSLSEKYSNVVFLEVDVDDCQDVAAECEVKCMPTFQFFKKGQKVGEFSGANKEKLEATINELI
Turning to B1, the Km came out at 72 µM.
